The source of these data is paper PMC3969726, “ArdA proteins from different mobile genetic elements can bind to the EcoKI Type I DNA methyltransferase of E. coli K12^☆” (Biochimica et Biophysica Acta, 2014).

This data set deals with the molecule itself. Kind of data set: SEC; Biosep-SEC-S3000 column; 20 mM Tris-HCl, 20 mM MES, 200 mM NaCl, 10 mM MgCl2, 0.1 mM EDTA, 7 mM 2-mercaptoethanol, pH 6.5; 25 °C; apparent molecular mass against injected monomer concentration, fitted to a monomer-dimer equilibrium; apparent constants; dimer to monomers.

B1: V583 ArdA (ArdA protein from Enterococcus faecalis V583, Orf EF2335) (natural protein, UniProt Q832A5 1-166, looked up)
chain: MEQMRVYIANLGKYNEGELVGAWFTPPVDFDEVKERIGLNDDYEEYAIHDYELPFEIDEYTSIEEINRLCGLAEELEGTPIGEVASEIQHAFFNSFEEMVEHVDDIVYYPDCNDMEDLAYQMVNEGYLGDAPENFVRYFNYSSFARDLEIEGNYLVTNRGIFEYPI
notes: ArdA protein, open reading frame EF2335 of Enterococcus faecalis V583; In solution an equilibrium of monomer and dimer; source: overexpressed, purified (DEAE anion exchange chromatography, size exclusion chromatography)
As for B1, the Kd was found to be 980 nM.
